Data reported in US20250011363A1, “OPTIMIZED SHORTENED PEPTIDE THAT BINDS TO ACETYLCHOLINE RECEPTOR, AND USE THEREOF” (SKINMED CO., LTD., priority 2021, published 2025).

What follows are substances tested against acetylcholine receptor (Homo sapiens, UniProt P02708) (assay: SPR binding affinity (RU) of optimized 5mer/6mer/7mer peptides, Examples 6-7). Conditions: 6mer-1 Top sequence; SPR; peptides tested at 10 μM.
Experimental: Based on the frequencies of occurrence of the top 7 amino acids from Table 7 in Example 5, 600 peptides comprising these amino acids (top combinations) and those comprising the 13 less frequently occurring amino acids (bottom combinations) were synthesized for each series of 5mer, 6mer-1, and 6mer-2. The binding affinity of each sequence for the acetylcholine receptor was measured using Surface Plasmon Resonance (SPR) analysis method. The peptides were tested at a concentration of 10 μM. Additionally, the average binding affinities of the top and bottom combinations in each series are depicted in FIGS. 5-7.
Representative peptides identified in Example 6, two in each library, including 5mers (73, 311) and 6mers-1 (43, 210) and 6mers-2 (136, 233), were compared with the pre-optimized 6mer, 5mer-ND, and Synake.

Chain of acetylcholine receptor (P02708 21-457): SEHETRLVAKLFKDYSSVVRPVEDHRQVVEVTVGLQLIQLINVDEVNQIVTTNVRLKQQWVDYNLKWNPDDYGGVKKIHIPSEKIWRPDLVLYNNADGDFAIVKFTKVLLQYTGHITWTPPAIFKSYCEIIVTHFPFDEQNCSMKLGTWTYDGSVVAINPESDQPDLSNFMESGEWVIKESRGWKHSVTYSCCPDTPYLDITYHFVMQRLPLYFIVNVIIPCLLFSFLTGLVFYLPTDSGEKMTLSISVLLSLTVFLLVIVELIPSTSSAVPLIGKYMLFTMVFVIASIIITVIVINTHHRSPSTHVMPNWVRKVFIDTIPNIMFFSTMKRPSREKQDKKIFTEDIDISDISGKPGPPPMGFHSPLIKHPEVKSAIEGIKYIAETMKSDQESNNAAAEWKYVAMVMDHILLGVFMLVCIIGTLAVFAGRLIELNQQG

Substance | Binding affinity [Ru]
6mer-1-208 (KRSIQR) | 122
6mer-1-205 (KRWRLR) | 133
6mer-1-399 (KRWILR) | 125
6mer-1-273 (KKQVSK) | 137
6mer-1-342 (RKRFCR) | 131
6mer-1-278 (KRQQTR) | 142
6mer-1-389 (RKLFCK) | 125
6mer-1-340 (KRLLCK) | 142
6mer-1-268 (KRRQSK) | 144

Same assay, conditions: 6mer-2 Top sequence; SPR; peptides tested at 10 μM

Substance | Binding affinity [Ru]
6mer-2-88 (KSFQRR) | 141
6mer-2-46 (KLYLKR) | 153
6mer-2-137 (KVFCKK) | 135
6mer-2-83 (KQYQRR) | 135
6mer-2-202 (RLIYKK) | 122
6mer-2-4 (RSYYRR) | 125
6mer-2-171 (RQQTRR) | 139

Same assay, conditions: SPR, Resonance Units; 5mer Bottom sequence (bottom combinations); peptides tested at 10 μM

Substance | Binding affinity [Ru]
5mer-713 (KYPKK) | 16
5mer-1063 (RPHVK) | 20
5mer-953 (RKMAR) | 23
5mer-1040 (KTPWR) | 17
5mer-620 (RCMHK) | 23
5mer-1068 (RMHKK) | 11
5mer-804 (RNTIR) | 20
5mer-1110 (RMHMK) | 13
5mer-952 (KTMHK) | 12
5mer-963 (RAPNK) | 24
5mer-1065 (KNPIR) | 18
5mer-806 (RKMFR) | 17
5mer-1029 (KADIK) | 25
5mer-676 (RTMFR) | 18

Same assay, conditions: SPR, Resonance Units; peptides tested at 10 μM; 6mer-1 Bottom sequence

Substance | Binding affinity [Ru]
6mer-1-1065 (KRDKAK) | 23
6mer-1-1035 (RRCHHR) | 34
6mer-1-1122 (RRTMGR) | 33
6mer-1-1077 (RRKWGR) | 24
6mer-1-1114 (KKFNFK) | 38
6mer-1-1179 (KRMTPR) | 40
6mer-1-1106 (KRFMNK) | 39
6mer-1-1087 (KKPWKR) | 27

Same assay, conditions: SPR, Resonance Units; peptides tested at 10 μM; 6mer-1 Bottom sequence (Table 11)

Substance | Binding affinity [Ru]
6mer-1-720 (RRKHKR) | 11
6mer-1-725 (KKDKPK) | 32
6mer-1-727 (RKANGK) | 29
6mer-1-710 (KKMHHR) | 21
6mer-1-700 (RKKMWK) | 19
6mer-1-738 (RKYHHR) | 25

Same assay, conditions: SPR, Resonance Units; peptides tested at 10 μM; 6mer-2 Bottom sequence

Substance | Binding affinity [Ru]
6mer-2-625 (RFPDKK) | 33
6mer-2-613 (KAANRR) | 18
6mer-2-739 (RIHAKK) | 17
6mer-2-758 (RFSFKK) | 18
6mer-2-755 (RYNDKK) | 18
6mer-2-629 (RFCWKK) | 32
6mer-2-966 (KEDAKR) | 41
6mer-2-695 (KCWWRR) | 28
6mer-2-855 (REMIKR) | 19
6mer-2-663 (KFAGRR) | 24
6mer-2-862 (RHTFKK) | 29
6mer-2-872 (KTHFRK) | 28
6mer-2-882 (RTPAKR) | 15
6mer-2-992 (RMHFRR) | 33
6mer-2-832 (KYHNRR) | 32
6mer-2-742 (KNNWRR) | 32

Same assay, conditions: SPR, Resonance Units; peptides tested at 10 μM; 6mer-2 Top sequence

Substance | Binding affinity [Ru]
6mer-2-554 (RWRCRR) | 121
6mer-2-506 (KSLLKK) | 135
6mer-2-487 (KSYTKR) | 121
6mer-2-520 (KSYCKR) | 144
6mer-2-491 (KRICKR) | 135
6mer-2-431 (KLILKR) | 135

Same assay, conditions: SPR, Resonance Units; peptides tested at 10 μM; 6mer-2 Top sequence (Table 12)

Substance | Binding affinity [Ru]
6mer-2-370 (KSLLRR) | 142
6mer-2-374 (KRQLKK) | 125
6mer-2-254 (KRIQRR) | 148
6mer-2-377 (RRYCRR) | 142
6mer-2-337 (KQFQKK) | 142
6mer-2-209 (RLYYRK) | 148
6mer-2-376 (KQQCKR) | 141
